Consider one molecule from patent publication US20070128190A1 (GLENMARK PHARMACEUTICALS S A, published 2007).

Assay [1] has as its target human α2 integrin with endogenous hamster β1 on CHO cells (human; hamster). Nature of the assay: cell-based or functional assay.
The target in another assay is T1, BSA (UniProt P02769 25-607).
T1 construct: also called BSA coated control wells
Nature of the assay: Eu-labelled antibody on BSA-coated control wells.

Assay [2] concerns the target T2, GST-human α2 I domain fusion protein (human, UniProt P17301 153-368).
T2 construct: the reverse primer ends at ...SIEGTV; also called GST-α2 I domain; hα2I; not shown: glutathione S-transferase tag encoded by vector pGEX-2TK
T2 sequence: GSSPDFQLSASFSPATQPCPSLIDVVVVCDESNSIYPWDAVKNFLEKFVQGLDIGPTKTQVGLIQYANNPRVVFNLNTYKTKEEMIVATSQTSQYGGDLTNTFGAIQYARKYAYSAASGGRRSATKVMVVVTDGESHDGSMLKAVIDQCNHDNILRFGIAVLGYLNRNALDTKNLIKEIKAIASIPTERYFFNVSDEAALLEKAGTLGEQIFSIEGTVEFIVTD
Nature of the assay: ELISA, GST fusion protein on immobilized TMC-2206, Kd estimated from EC50. As for the experimental part:
(§1) The fusion proteins were then expressed and purified as described above for the human GST-α2 I domain fusion protein. […] Therefore, these and the primate fusion proteins were further purified by size exclusion chromatography on a Sephadex 75 10/30 (GE-Amersham) column (primate) by FPLC on an Akta-Basic FPLC system (GE-Amersham) to yield a monomeric fraction. […] The Kᵢ assays were performed as described above in Example 2. […] Plates were sealed and coating occurred overnight at 4° C. The next morning, the plates were washed twice with TBS solution and then blocked using 200 μL of the blocking solution described above for 1 hour at room temperature with shaking. After blocking, the blocking solution was removed but the wells were not washed. Instead, a serial dilution of GST fusion protein was made, added to the wells and then incubated for 2 hours at room temperature with shaking. The wells were then aspirated and a TBS washing buffer applied for 5 minutes at room temperature. The washing step was repeated twice more before the secondary antibody was applied. The secondary antibody step consisted of Amersham's HRP-conjugated rabbit anti-GST antibody diluted 1:2000 in blocking buffer. […] The reaction within the wells was then read and quantified by spectrophotometric absorption using the Molecular Dynamics plate reader and associated Softmax software, respectively. […]

The target in assay [3] is T3, GST-rhesus α2 I domain fusion protein (rhesus monkey, UniProt P17301 153-368 (human entry)).
T3 construct: also called rhesus GST-α2 I; not shown: glutathione S-transferase tag encoded by vector pGEX-2TK
T3 sequence: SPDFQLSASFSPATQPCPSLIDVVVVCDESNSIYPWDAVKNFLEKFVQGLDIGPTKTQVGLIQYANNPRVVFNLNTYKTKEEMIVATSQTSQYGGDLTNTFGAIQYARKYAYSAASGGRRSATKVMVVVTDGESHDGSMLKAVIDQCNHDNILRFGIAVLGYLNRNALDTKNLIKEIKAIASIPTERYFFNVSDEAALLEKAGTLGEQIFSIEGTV
Described as above. On the procedure: as §1

T1 sequence (P02769 25-607 limits assumed): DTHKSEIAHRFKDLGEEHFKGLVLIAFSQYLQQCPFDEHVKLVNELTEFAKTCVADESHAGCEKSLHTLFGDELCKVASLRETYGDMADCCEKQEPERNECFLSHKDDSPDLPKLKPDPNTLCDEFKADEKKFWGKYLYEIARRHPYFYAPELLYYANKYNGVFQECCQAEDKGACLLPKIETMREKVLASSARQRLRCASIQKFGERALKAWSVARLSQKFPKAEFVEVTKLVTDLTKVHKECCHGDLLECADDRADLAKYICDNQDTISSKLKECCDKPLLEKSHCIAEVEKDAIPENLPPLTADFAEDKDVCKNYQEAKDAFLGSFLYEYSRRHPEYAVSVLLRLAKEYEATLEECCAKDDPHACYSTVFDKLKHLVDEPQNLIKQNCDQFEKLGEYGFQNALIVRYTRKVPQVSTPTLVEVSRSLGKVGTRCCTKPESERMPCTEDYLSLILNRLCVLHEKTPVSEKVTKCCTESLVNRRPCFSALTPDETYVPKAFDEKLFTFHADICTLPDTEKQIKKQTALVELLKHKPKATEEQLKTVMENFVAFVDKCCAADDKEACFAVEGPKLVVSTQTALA
human α2 integrin with endogenous hamster β1 on CHO cells (human; hamster), sequence (P17301 30-1181 E534K): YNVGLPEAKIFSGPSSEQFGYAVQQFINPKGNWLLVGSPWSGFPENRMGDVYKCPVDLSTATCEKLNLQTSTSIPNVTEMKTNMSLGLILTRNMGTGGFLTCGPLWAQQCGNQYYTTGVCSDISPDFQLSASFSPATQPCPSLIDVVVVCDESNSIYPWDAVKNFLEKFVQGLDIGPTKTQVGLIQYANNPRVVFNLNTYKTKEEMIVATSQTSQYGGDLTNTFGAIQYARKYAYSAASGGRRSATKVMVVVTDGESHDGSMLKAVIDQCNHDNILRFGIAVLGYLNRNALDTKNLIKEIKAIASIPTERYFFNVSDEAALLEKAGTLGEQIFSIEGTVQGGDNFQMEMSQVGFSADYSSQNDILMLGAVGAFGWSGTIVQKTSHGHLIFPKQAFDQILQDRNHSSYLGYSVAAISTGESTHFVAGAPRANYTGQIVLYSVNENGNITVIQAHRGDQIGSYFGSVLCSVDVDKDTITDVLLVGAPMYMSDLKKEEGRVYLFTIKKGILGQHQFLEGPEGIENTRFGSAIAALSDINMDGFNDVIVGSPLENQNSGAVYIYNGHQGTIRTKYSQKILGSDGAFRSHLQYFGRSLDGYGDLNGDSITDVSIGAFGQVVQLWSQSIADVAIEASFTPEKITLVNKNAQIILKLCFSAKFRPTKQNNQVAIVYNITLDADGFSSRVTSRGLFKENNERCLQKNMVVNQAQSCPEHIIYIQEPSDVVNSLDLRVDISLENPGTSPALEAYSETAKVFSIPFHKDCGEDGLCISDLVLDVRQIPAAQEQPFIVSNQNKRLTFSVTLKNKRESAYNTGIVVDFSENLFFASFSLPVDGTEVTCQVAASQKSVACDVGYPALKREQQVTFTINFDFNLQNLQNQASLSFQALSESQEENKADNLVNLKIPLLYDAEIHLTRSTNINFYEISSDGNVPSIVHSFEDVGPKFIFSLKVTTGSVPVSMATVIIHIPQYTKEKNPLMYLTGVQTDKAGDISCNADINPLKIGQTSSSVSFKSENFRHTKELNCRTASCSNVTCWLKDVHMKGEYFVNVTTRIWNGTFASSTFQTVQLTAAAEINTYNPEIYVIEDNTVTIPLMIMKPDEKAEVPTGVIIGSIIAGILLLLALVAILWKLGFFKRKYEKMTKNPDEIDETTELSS

B1: TMC-2206 (antibody, mouse IgG1, V domains shown)
VH: QVQLKESGPGLVAPSQSLSITCTVSGFSLTNYGIHWVRQPPGKGLEWLGVIWARGFTNYNSALMSRLIITKDNSQSQVFLKMNSLQPDDSATYFCARANDGVYYAMDYWGQGTSVTVSS
VL: QFVLTQSPAFLSASPGEKVTMTCSANSSVNYIHWYQQKSGTSPKKWIYDTSKLASGVPVRFSGSGSGTSYSLTISSMETEDAATYYCQQWTTNPLTFGAGTRVELK
notes: murine IgG1/κ secreted by hybridoma BHA2.1; labelled with Eu-N1-ITC where used as tracer; also called BHA2.1
Take B1: the “EC50 (nM), cell adhesion to collagen assay” value in assay [1] was determined as 1.03 nM. In addition, in the assay with BSA, the binding result is listed as “no binding”. Further, the Kd is 0.18 nM in assay [2] and 0.04 nM in assay [3].

The Kd is the free concentration of one partner at which half of the binding sites on the other are occupied at equilibrium, for simple one-to-one binding.
